Reference: paper PMC8318291, “CryoEM structure of the Nipah virus nucleocapsid assembly” (PLoS Pathogens, 2021)
Values joined by “and” are separate entries in the source; they are usually repeats but may differ in a detail not shown here. Equal values may be shown once.

Molecular target: the molecule itself
Experiment: cryo-EM structure

B1: Nipah virus (NiV) nucleocapsid protein (natural protein)
chain: MSDIFEEAASFRSYQSKLGRDGRASAATATLTTKIRIFVPATNSPELRWELTLFALDVIRSPSAAESMKVGAAFTLISMYSERPGALIRSLLNDPDIEAVIIDVGSMVNGIPVMERRGDKAQEEMEGLMRILKTARDSSKGKTPFVDSRAYGLRITDMSTLVSAVITIEAQIWILIAKAVTAPDTAEESETRRWAKYVQQKRVNPFFALTQQWLTEMRNLLSQSLSVRKFMVEILIEVKKGGSAKGRAVEIISDIGNYVEETGMAGFFATIRFGLETRYPALALNEFQSDLNTIKSLMLLYREIGPRAPYMVLLEESIQTKFAPGGYPLLWSFAMGVATTIDRSMGALNINRGYLEPMYFRLGQKSARHHAGGIDQNMANRLGLSSDQVAELAAAVQETSAGRQESNVQAREAKFAAGGVLIGGSDQDIDEGEEPIEQSGRQSVTFKREMSISSLANSVPSSSVSTSGGTRLTNSLLNLRSRLAAKAAKEAASSNATDDPAISNRTQGESEKKNNQDLKPAQNDLDFVRADV
notes: also called N protein; nucleoprotein (N)
- stoichiometry N: 13 subunits and 14 subunits
